Numbering of substitutions follows the chain as printed.

T1: Human ALPP (leucine zipper) (human)
T1 construct: Whole entry: ALPP fused with a cysteine stabilised leucine zipper and His tag; also called hALPP
T1 chain: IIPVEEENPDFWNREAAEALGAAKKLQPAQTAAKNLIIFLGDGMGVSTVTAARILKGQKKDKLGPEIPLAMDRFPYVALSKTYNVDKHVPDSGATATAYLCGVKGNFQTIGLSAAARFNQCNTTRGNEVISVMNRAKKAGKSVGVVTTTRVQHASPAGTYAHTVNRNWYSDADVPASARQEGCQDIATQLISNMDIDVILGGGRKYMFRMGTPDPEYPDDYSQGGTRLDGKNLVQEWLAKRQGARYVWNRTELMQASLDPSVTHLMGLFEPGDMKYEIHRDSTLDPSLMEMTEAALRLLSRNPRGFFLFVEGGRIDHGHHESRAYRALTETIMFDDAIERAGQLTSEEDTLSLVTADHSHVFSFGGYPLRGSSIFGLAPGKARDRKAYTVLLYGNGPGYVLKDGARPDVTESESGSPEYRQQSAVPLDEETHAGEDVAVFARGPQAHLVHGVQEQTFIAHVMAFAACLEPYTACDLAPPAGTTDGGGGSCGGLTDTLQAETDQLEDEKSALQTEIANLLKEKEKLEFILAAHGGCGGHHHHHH

T2: Human ALPPL2 (leucine zipper) (human)
T2 construct: Whole entry: fused with a cysteine stabilised leucine zipper and His tag; also called hALPPL2
T2 chain: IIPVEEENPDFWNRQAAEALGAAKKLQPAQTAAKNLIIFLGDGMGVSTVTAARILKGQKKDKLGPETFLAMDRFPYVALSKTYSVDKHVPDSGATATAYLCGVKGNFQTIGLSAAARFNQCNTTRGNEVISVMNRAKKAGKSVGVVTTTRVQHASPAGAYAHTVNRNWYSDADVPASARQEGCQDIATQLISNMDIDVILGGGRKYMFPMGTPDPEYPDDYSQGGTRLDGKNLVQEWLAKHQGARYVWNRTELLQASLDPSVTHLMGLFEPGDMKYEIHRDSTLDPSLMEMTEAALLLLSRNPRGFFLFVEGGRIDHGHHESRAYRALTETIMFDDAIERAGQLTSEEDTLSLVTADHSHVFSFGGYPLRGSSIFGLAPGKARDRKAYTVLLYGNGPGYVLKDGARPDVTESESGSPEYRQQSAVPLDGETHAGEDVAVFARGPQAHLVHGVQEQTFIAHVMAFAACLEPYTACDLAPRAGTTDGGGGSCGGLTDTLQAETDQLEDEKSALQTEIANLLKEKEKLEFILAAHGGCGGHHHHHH

T3: Human ALPL (leucine zipper) (human)
T3 construct: Whole entry: fused with a cysteine stabilised leucine zipper and His tag; also called hALPL
T3 chain: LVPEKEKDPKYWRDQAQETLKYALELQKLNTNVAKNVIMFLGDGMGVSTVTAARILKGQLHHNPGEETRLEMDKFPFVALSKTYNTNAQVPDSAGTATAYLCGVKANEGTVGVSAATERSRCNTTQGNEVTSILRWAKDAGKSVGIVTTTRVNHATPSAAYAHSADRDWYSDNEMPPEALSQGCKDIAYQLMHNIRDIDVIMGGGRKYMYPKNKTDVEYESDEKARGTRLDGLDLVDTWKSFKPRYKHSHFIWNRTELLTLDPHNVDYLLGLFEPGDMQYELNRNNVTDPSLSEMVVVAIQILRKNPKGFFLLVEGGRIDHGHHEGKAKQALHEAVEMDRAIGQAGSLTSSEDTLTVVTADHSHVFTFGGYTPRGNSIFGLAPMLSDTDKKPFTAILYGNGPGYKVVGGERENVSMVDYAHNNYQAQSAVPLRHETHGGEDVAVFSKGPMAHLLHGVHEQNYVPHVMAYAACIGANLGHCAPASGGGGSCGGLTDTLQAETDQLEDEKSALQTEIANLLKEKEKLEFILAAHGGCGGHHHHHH

B1: D04 His (VHH, not shown: small tags and cut ends)
VHH: QVQLVESGGGLVQPGGSLRLSCAASESTFSINVMGWYRQAPGKQRELVATITSGDITNYADSVKGRFTISRDNAENTVYLRTNSLKPEDTAVYYCNARGEYHSGNEYDYWGQGTQVTVSS
B2: C07 His (VHH, not shown: small tags and cut ends)
VHH: QVQLVESGGGLVQAGESLRLACAASGTIFSGNAVGWYRQAPEKQREWVSSITDYGDTDYAEAVKGRFTISRDNAKNTVYLQMNSLKPEDTAVYYCYVYQRGESEEYWGQGTQVTVSS
notes: also called #258
B3: E10 His (VHH, not shown: small tags and cut ends)
VHH: QVQLVESGGGLVQAGGSLRLSCAVSGRALSDYNIGWFRQAPGKEREFVARKTWDGSSTRYDDSVKGRFTVSIEDAKNTAYLQMSSLKTEDTAVYYCAAGRYSRARGWEYDYWGQGTQVTVSS
notes: also called #265
B4: F05 His (VHH, not shown: small tags and cut ends)
VHH: B3 VHH with V24A, L29F, S30G, K51R, E73D, D74N, S84N, A104V
B5: A06 His (VHH, not shown: small tags and cut ends)
VHH: QVHLVESGGGLVQAGGSLRLSCAASGRTFLSMGWFRQAPGKEREFVAAISWTGGSTGYADSVKGRFTISRESDKETMYLQMNSLKPEDTAVYYCAARGDVYYGGDDATRYKYWGQGTQVTVSS
notes: also called #250
B6: F08 His (VHH, not shown: small tags and cut ends)
VHH: QVQLVESGGGSVQAGGSLRLSCAASGPSLSNYAMGWFRQAPGKEREFVAGISWGGGRTSYTDSVKGRFTISRDNAKNTVYLQMNNLKPEDTGVYYCAGRYGRGRNVEYEYDYWGQGTQVTVSS
notes: also called #269
B7: A05 His (VHH, not shown: small tags and cut ends)
VHH: QVQLVESGGGLVQAGASLTLSCAASGFTFNTRSIVWFRQAPGKEREAVSCISKVAGSTYYGDSVQGRFSSSTDNAKNTVSLQMNSLKPEDTAVYTCAASFAPNCYGWSVAANMEYWGEGTMVTVSS
notes: also called #249
B8: D10 His (VHH, not shown: small tags and cut ends)
VHH: QVQLVESGGGLVQPGGSLRLSCAASGSIFSVNTMGWYRQAPGKQRDLVAVATSGGTIHYADSVKGRFTISRDNAKNTVYLQMNSLKPEDTAVYYCNLVVPYGMIAGDHDYWGQGTKVTVSS
B9: E06 His (VHH, not shown: small tags and cut ends)
VHH: QVHLVESGGGLVQAGGSLRLSCAASRRSFSEYAMGWFRQAPGKEREFVAAIGWSGVIEYADSVKGRFTISRDNAKDTVYLQMNSLKPEDTAVYYCAAGLGIRVVSQTPAYWGQGTQVTVSS

The target of the first test is T1, Human ALPP (leucine zipper). In words: BLI, antigen immobilised. How it is done: (§1) Binding kinetics were determined using the Biolayer Interferometry (BLI) Octet K2 system (Sartorius). […] All assays were conducted in PBS with a plate temperature of 25° C. Ka (M⁻¹s⁻¹), Kd (s⁻¹) and KD (nM) values were determined using Octet Data Analysis High Throughput software (ForteBio) for Biolayer Interferometry.
(Biolayer interferometry detects binding as a change in optical thickness at a sensor tip.)
On to B1, for which the Kd was < 0.01 nM; the koff (as a rule, a measure of how fast the partners let go of each other) was < 1e-07 s⁻¹; the kon (commonly the rate constant with which the complex forms) worked out at 85100 M⁻¹ s⁻¹.
In the case of B2, the Kd amounted to 0.22 nM, the off-rate (koff) turned out to be 2.8e-05 s⁻¹ and the kon was determined as 129000 M⁻¹ s⁻¹.
With B3, the Kd was < 0.01 nM, the koff is < 1e-07 s⁻¹ and the on-rate constant (kon) stood at 54200 M⁻¹ s⁻¹.
Take B4: the Kd is < 0.01 nM, the koff is < 1e-07 s⁻¹ and the kon came out at 13900 M⁻¹ s⁻¹.
Regarding B5, the Kd was 1.32 nM, the dissociation rate constant (koff) stood at 0.000154 s⁻¹ and the on-rate (kon) turned out to be 117000 M⁻¹ s⁻¹.
As for B6, the Kd is < 0.01 nM, the dissociation rate constant (koff) is < 1e-07 s⁻¹ and the kon was determined as 252000 M⁻¹ s⁻¹.
For B7, the Kd was < 0.01 nM, the koff is < 1e-07 s⁻¹ and the kon was 260000 M⁻¹ s⁻¹.
B8 yielded a Kd of 0.2 nM, a dissociation rate constant (koff) of 1.3e-05 s⁻¹ and an on-rate (kon) of 67300 M⁻¹ s⁻¹.
Consider B9, for which the Kd is < 0.01 nM, the koff was < 1e-07 s⁻¹ and the kon came to 106000 M⁻¹ s⁻¹.

The next test has as its target T2, Human ALPPL2 (leucine zipper). In words: BLI, antigen immobilised. How it is done: as §1
In turn, B1 gave a Kd of 2.92 nM.
Turning to B2, the Kd worked out at 0.61 nM, the dissociation rate constant (koff) worked out at 0.000288 s⁻¹ and the on-rate constant (kon) was found to be 471000 M⁻¹ s⁻¹.
As for B3, the Kd is 0.0862 nM, the dissociation rate constant (koff) came out at 0.000141 s⁻¹ and the kon was 1.64e+06 M⁻¹ s⁻¹.
B4 came in with a Kd of 0.0954 nM, an off-rate (koff) of 0.000356 s⁻¹ and a kon of 3.74e+06 M⁻¹ s⁻¹.
Turning to B5, the Kd came to 5.04 nM, the koff was determined as 0.000672 s⁻¹ and the kon turned out to be 133000 M⁻¹ s⁻¹.
For B6, in that order: < 0.01 nM, < 1e-07 s⁻¹ and 684000 M⁻¹ s⁻¹.
For B8, in that order: 1.22 nM, 0.0028 s⁻¹ and 2.3e+06 M⁻¹ s⁻¹.
Regarding B9, the Kd amounted to 0.0834 nM, the dissociation rate constant (koff) stood at 8.75e-05 s⁻¹ and the kon worked out at 1.05e+06 M⁻¹ s⁻¹.

The next test deals with T3, Human ALPL (leucine zipper). In words: BLI, antigen immobilised. How it is done: as §1
Regarding B1, the binding result is on record as “no binding”.
With B2, the binding result is “no binding”.
B3: the binding result is given as “no binding”.
As for B4, the binding result is listed as “no binding”.
Regarding B5, the binding result is “no binding”.
As for B6, the binding result was “no binding”.
Take B7: the binding result is recorded as “no binding”.
On to B8, for which the binding result is reported as “no binding”.
B9: the binding result is recorded as “no binding”.

The target of another test is T4, human ALPP on CHO cells (human, UniProt P05187 23-506).
T4 construct: whole, on cells; also called CHO-ALPP
In words: flow cytometry, CHO cells, KDapp. How it is done: (§2) Cell surface binding of test agents to hALPP isoforms was characterized in four CHO-ALPP isoform stably transfected cell lines (CHO-ALPP, CHO-ALPPL2, CHO-ALPI and CHO-ALPL) and the resulting KDapp values determined. Adherent cells were detached from tissue culture flasks by incubating with 0.1% EDTA/PBS solution at 37° C. for ~10 minutes or until cells detached easily. Cells were re-suspended in ice-cold PBS/2% FCS in 15 ml tubes and centrifuged at 1700 rpm for 5 mins at 4° C. Supernatant was removed and the cell pellet re-suspended in PBS/2% FCS. […] Cells were incubated with 100 μl of test agents at a range of concentrations, plus controls for 1 hr on ice. The sample plate was centrifuged at 1700 rpm for 5 mins at 4° C. The supernatant was removed, and a wash performed by re-suspending the cell pellets in 0.25 mL of ice-cold PBS/2% FCS using a multichannel pipette. Samples were again centrifuged at 1700 rpm for 5 min at 4° C. Supernatant was removed and two further washes performed as described. After the final wash and centrifugation step, excess liquid was removed by blotting the plate on tissue paper. Binding of VHH (His6 tagged) agents was determined by adding 100 μl of anti-x6His tag Ab (Abcam) per cell pellet sample as appropriate and incubating on ice for 30 mins. Wash steps were performed as described previously. Fitc-anti-mouse antibody (ThermoFisher) was used to detect binding of the VHH (His6 tagged) agents by incubating with the appropriate samples for 30 min on ice in the dark. Wash steps were performed as described previously. All cell pellets were finally re-suspended in […] of ice-cold PBS/2% FCS and left on ice in the dark prior to analysis on a Merck-Millipore Guava EasyCyte HT or Thermo Fisher Attune N×T flow cytometer.
Background: A flow cytometer gives signals particle by particle.
B1 showed a Kd of 4.2 nM.
B2 came in with a Kd of 3.5 nM.
Same read-out and setting: the result for B3 reads 3.5 nM.
Still for that read-out and setting: the result for B4 reads 2.3 nM; that for B5, 42.4 nM.
The molecule B6 had a Kd of 5 nM.
The molecule B7 had a Kd of 3.8 nM.
Regarding B8, the Kd came out at 3.4 nM.
Same read-out and setting: with B9 the figure was 4.6 nM.

For a further test, the target named is T5, human ALPPL2 on CHO cells (human, UniProt P10696 20-503).
T5 construct: whole, on cells; also called CHO-ALPPL2
In words: flow cytometry, CHO cells, KDapp. The procedure:
as §2
The molecule B1 displayed a Kd of 19.5 nM.
In turn, B2 gave a Kd of 5.1 nM.
On the same count and under the same terms, the result for B3 reads 3.8 nM; that for B4, 1.8 nM; that for B5, 28.3 nM.
The same measure, in the same setting: the result for B6 reads 3.3 nM.
In turn, B7 registered a Kd of 6 nM.
Same read-out and setting: with B9 the figure was 4.9 nM.

The record behind these values is US20260216242A1 (ALMAC DISCOVERY, published 2026).
